Target: T1, Shh in A549 cells (Homo sapiens, UniProt Q15465)
T1 construct: 1) 293T (endogenous Shh), 2) 293T (bearing exogenously transfected Shh) and 3) A549 (Shh-expressing); endogenous in cells; host or cells: 293T and A549 (endogenous); also 293T and A549 transiently transfected with pCMV-Shh (Origene)
Assay: Flow cytometry of purified antibodies on A549 cells (vector control or pCMV-Shh)
Type: binding
Protocol: A549, 293T or 293T (+pCMV Shh) cells were labeled with Sonic Hedgehog (Shh) antibody (Abcam 53281, 1:100) or therapeutic test antibodies (1:100) for 1 hour at RT post serum blocking. Following two PBS washes, a FITC-conjugated secondary antibody (Abcam 97029, 1:100) or an Alexa-Fluor 647 (Invitrogen, 1:1000) was used to label cells. Samples were screened by flow cytometry using an Accuri™ C6 machine (BD Biosciences). For fluorescence activated cell sorting, samples were sorted using an S3e™ Cell Sorter (Bio-Rad) and the Shh+ population was collected. For all experiments, cells processed without primary antibody served as a negative control. Experiments were performed in duplicates or triplicates.
For the purpose of selecting the best C-term Shh antibodies from over 50 hybridoma clones, two sets of screening assays were designed. First, the same Shh C-term peptides (AA 247-264 and 448-462, KLH-free version) used to mount an immune response in mice was employed in an ELISA-based assay with supernatants from antibody-producing hybridoma clonal cells. […] To confirm specific recognition, A549 (+vector control) cells and A549 cells transfected with exogenous Shh were labeled with 2G4 and 2D9 and assessed via flow cytometry. […] Finally, the Kd values of both antibodies with recombinant full-length Shh were calculated and nanomolar binding affinities were observed (FIG. 48C).

B1: 2G4: purified mouse monoclonal C-terminal Shh antibody from hybridoma sub-clone 2G4 of clone 1C11, IgG1 kappa (antibody, V domains shown)
VH: EVKLVESGGGLVKPGGSLKLSCAASGFTFSSYTMSWVRQTPAKRLEWVATISSGGGNTYYPDSVKGRFTISRDNARNTLYLQMSSLRSEDTAMYYCARDYRSLFAYWGQGTLVTVSA
VL: QIVLTQSPAIMSASPGEKVTITCSASSSVSYMHWFQQKPGTSPKLWIYSTSNLASGVPARFSGSGSGTSYSLTISRMEAEDAATYYCQQRSSYPFTFGSGTKLEIK
A549 (+vector control)
  endogenous Shh recognized (flow cytometry): 0.5%
A549 cells transfected with exogenous Shh
  exogenous Shh recognized (flow cytometry): 6%

— patent US11479601B2, “Antibodies specific to Sonic Hedgehog and method of use thereof” (The Regents of the University of California, priority 2016, dated 2022)
